Where a chain is given by its changes, count along the chain named. Names and notes keep the numbering of the source.
B1: AC_05332 (bispecific antibody, human IgG1, kappa, L234A L235A)
heavy: not shown
light: DIQMTQSPSSLSASVGDRVTITCRASQSISSYLNWYQEKPGKAPKLLIYAASSLQSGVPSRFSGSGSGTDFTLTISSLQPEDFATYYCQQTYGYLHTFGQGTKLEIKRTVAAPSVFIFPPSDEQLKSGTASVVCYLNNFYPREAKVQWKVDNALQSGNSQESVTEQDSKDSTYSLWSTLTLSKADYEKHKVYACEVTHQGLSSPVTKSFNRGEC
chain: EVQLLESGGGLVQPGGSLRLSCAASGFTFSSYAMSWVREAPGKGLEWVSGIGSYGGGTYYADSVKGRFTISRDNSKNTLYLQMNSLRAEDTAVYYCARYVNFGMDYWGQGTLVTVSSASTKGPSVFPLAPSSKSTSGGTAALGCLVKDYFPEPVTVSWNSGALTSGVHTFPAVLQSSGLYSLSSVVEVPSSSLGTQTYICNVNHKPSNTKVDKKVEPKSC
notes: RUBY format; H1 (role heavy) = IgG heavy chain-linker-Fab light chain, L1 (role light) = IgG light chain, H2 (role chain) = Fab heavy chain; also called parental bsAb AC_05332; 5T4xCD40
B2: AC_05376 (bispecific antibody)
heavy 1: not shown
light: B1 light with T91Y, Y92G, G93R, Y94N, L95P, H96P
heavy 2: EVQLLESGGGLVQPGGSLRLSCAASGFTFSSYAMSWVREAPGKGLEWVSAISGSGGSEYYADSVKGRFTISRDNSKNTLYLQMNSLRAEDTAVYYCARYYGGYYSAWMDYWGQGTLVTVSSASTKGPSVFPLAPSSKSTSGGTAALGCLVKDYFPEPVTVSWNSGALTSGVHTFPAVLQSSGLYSLSSVVEVPSSSLGTQTYICNVNHKPSNTKVDKKVEPKSC
notes: AC_05302 with the mutation in the VH of chain H2; also called T65E mutant of AC_05302; copies: 2 + 2 + 2

Experiments:
[1] = target: T1, 5T4 expressed on CHO cells (UniProt Q13641 32-420, limits assumed); test: flow cytometry on CHO cells expressing 5T4, anti-human IgG Fcg-PE; CHOwt cells as control
T1 construct: whole, on cells; also called CHO-5T4; 5T4 expressing CHO cells
T1 sequence (looked up): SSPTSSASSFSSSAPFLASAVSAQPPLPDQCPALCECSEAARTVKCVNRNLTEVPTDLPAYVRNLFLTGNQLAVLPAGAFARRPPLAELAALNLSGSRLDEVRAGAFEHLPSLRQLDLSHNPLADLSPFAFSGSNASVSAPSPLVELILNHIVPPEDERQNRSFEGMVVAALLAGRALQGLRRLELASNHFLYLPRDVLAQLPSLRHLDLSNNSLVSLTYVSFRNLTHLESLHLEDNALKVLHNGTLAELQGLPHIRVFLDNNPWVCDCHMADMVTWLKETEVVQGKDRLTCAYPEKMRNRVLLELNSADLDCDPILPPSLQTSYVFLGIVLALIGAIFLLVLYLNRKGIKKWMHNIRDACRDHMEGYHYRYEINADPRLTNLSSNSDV
Method: (§1) Binding to respective targets expressed on cells were evaluated using flow cytometry. I brief, CHO cells modified to express 5T4, B16 cells modified to express CD40 as well as the wildtype CHO and B16 cell lines were incubated with titrated concentrations of RUBY™ bsAbs. Binding of the antibodies was detected using fluorochrome-conjugated anti-human IgG and analyzed using flow cytometry.

CD40 expressed on cells [2] = target: T2, CD40 expressed on cells (UniProt P25942 21-277); test: flow cytometry on B16 cells expressing CD40, anti-human IgG Fcg-PE; B16wt cells as control
T2 construct: whole, on cells; also called B16-CD40; CD40 expressing B16 cells
Method: as §1

CD40 = target: T3, CD40 (UniProt P25942 21-193); test: dual target ELISA (simultaneous 5T4 and CD40)
T3 construct: also called biotinylated CD40; CD40 antigen
Method: Antigen binding was evaluated by dual target ELISA. In brief, relevant antigens were coated at 0.5 μg/ml in PBS in ELISA plates over night at 4° C. After washing in PBS/0.05% Tween 20 (PBST), the plates were blocked with PBST/2% BSA for at least 30 minutes at room temperature before being washed again. Samples serially diluted in PBST/0.5% BSA were then added and allowed to bind for at least 1 hour at room temperature. […] Dual complexed bsAb were detected with HRP-labelled streptavidin. SuperSignal Pico Luminescent was used as substrate and luminescence signals were measured using Fluostar Optima. Binding was compared between parental and mutated RUBY pairs.

CD40 expressed on cells [3] = target: T2, CD40 expressed on cells; test: flow cytometry on B16 cells expressing CD40, anti-human IgG Fcg-PE; B16wt cells as control; remark: listed apart in the source
Method: as §1

T2 sequence (P25942 21-277 limits assumed): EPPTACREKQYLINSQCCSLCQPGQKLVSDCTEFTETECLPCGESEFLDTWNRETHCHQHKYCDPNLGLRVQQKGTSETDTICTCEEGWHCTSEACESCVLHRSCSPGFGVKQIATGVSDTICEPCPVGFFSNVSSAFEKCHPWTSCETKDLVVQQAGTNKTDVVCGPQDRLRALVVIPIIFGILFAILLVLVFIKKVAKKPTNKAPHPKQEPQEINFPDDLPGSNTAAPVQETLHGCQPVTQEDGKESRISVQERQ
T3 sequence (P25942 21-193 limits assumed): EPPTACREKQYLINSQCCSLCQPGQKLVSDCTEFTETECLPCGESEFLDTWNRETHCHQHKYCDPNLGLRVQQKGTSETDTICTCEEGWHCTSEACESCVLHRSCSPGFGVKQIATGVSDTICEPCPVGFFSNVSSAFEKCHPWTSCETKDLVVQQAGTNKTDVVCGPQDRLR

Binder | EC50 (read off the curve) [1] | EC50 (read off the curve) (CD40 expressed on cells [2]) | binding result (CD40) | binding result (CD40 expressed on cells [3])
B1 | ~10 nM | ~5 nM | – | –
B2 | – | – | no binding | no binding (tested: about 330 nM)

Source: US20260001961A1 (ALLIGATOR BIOSCIENCE, published 2026)
